Where [1] appears, read: Bos taurus, pH 4.4, Thermal, DSC, Sodium acetate 25 mM, NaCl 100 mM, reversible: yes.
Where [2] appears, read: Bos taurus, pH 4.8, Thermal, DSC, Sodium acetate 25 mM, NaCl 100 mM, reversible: yes.
Setting [3] is: Bos taurus, pH 5.3, Thermal, DSC, Sodium acetate 25 mM, NaCl 100 mM, reversible: yes.
Where [4] appears, read: Bos taurus, pH 7.55, Thermal, DSC, Tris 0.09 M, reversible: yes.
The mark [5] stands for this setting: Bos taurus, pH 8, Thermal, DSC, Sodium acetate 25 mM, NaCl 100 mM, reversible: yes.
[6] abbreviates: Homo sapiens, Thermal, DSC, 1 X - PBS, Mg2+ 0.5 mM, structure 1AJE.
The mark [7] stands for this setting: Thermotoga maritima (strain ATCC 43589 / DSM 3109 / JCM 10099 / NBRC 100826 / MSB8), pH 6.5, 25 °C, GdnHCl, Fluorescence, sodium phosphate 50 mM, NaCl 20 mM, reversible: yes.
[8] abbreviates: Equus caballus, pH 6, 20 °C, GdnHCl, CD, MES 10 mM, NaCl 0.4 M, reversible: yes.
[9] abbreviates: Equus caballus, pH 7, 10 °C, GdnHCl, CD, sodium phosphate 0.1 M, reversible: yes.
[10] abbreviates: Equus caballus, pH 7, 10 °C, GdnHCl, Fluorescence, acetate/phosphate 50 mM/50 mM/.
Where [11] appears, read: Equus caballus, pH 7, 22 °C, GdnHCl, Fluorescence, sodium phosphate 0.1 M, reversible: yes.
Setting [12] is: Equus caballus, pH 7, 23 °C, GdnHCl, SAXS, Phosphate 100 mM, transition: 2.
Setting [13] is: Equus caballus, pH 7, 25 °C, GdnHCl, DSC, cacodylic acid 0.03 M, NaCl 0.1 M, reversible: yes.
[14] abbreviates: Equus caballus, pH 12.7, 22 °C, GdnHCl, Fluorescence, NaOH, reversible: yes.
Where [15] appears, read: Homo sapiens, pH 7.5, Thermal, Differential Scanning Fluorimetry, PBS, transition: 2, structure 1DXX.
The mark [16] stands for this setting: Homo sapiens, pH 7.5, Thermal, CD, Tris-HCl, NaCl, structure 1DXX.
[17] abbreviates: Homo sapiens, pH 7, Thermal, CD, Phosphate 100 mM, NaCl 150 mM, structure 1DXX.
Setting [18] is: Homo sapiens, pH 2.4, Thermal, CD, glycine hydrochloride 20 mM, NaCl 1 M, reversible: yes, structure 1TTG.
Where [19] appears, read: Homo sapiens, pH 7, Thermal, CD, sodium phosphate 20 mM, NaCl 0.1 M, reversible: yes, structure 1TTG.
Setting [20] is: Homo sapiens, pH 7, Thermal, CD, sodium phosphate 20 mM, NaCl 1 M, reversible: yes, structure 1TTG.
The mark [21] stands for this setting: Homo sapiens, pH 5, 25 °C, Urea, CD, sodium acetate 50 mM, structure 1TTG.
[22] abbreviates: Drosophila melanogaster, pH 7.5, 15 °C, GdnHCl, CD, Tris-HCl, NaCl 50 mM, structure 1SAN.
Setting [23] is: Bos taurus, pH 8, Thermal, DSC, HEPES 50mM, NaCl 150mM, structure 1IHG.
Setting [24] is: Bos taurus, pH 8, Thermal, DSC, HEPES 50mM, NaCl 150mM.
[25] abbreviates: Bos taurus, pH 8, 30 °C, GdnHCl, CD, borate 10 mM, structure 1BP2.
Where [26] appears, read: Rattus norvegicus, pH 8, 25 °C, Urea, Fluorescence, Tris-HCl 50 mM, MgCl2 4 mM, transition: 3, reversible: yes, structure 1QM4.

“And” between values parts separate entries of the source, which are not always exact repeats. Identical values can stand only once.

Chain of Peptidyl-prolyl cis-trans isomerase D K308A, P26882 (P26882 whole entry K308A): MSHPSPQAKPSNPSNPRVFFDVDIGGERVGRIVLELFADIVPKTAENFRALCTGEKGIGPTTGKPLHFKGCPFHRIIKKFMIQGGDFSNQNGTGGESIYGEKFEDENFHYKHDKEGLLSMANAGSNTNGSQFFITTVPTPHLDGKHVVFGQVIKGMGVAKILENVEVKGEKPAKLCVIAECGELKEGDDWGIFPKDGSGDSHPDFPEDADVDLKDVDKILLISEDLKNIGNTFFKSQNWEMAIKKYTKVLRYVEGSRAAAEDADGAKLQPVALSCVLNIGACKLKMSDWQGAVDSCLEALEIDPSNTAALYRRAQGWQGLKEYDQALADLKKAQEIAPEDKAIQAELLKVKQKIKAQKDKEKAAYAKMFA
Chain of Peptidyl-prolyl cis-trans isomerase D K227A, P26882 (P26882 whole entry K227A): as the sequence (P26882 whole entry K308A) above, with K227A, A308K counted along it
Chain of Fibronectin D1544N, P02751 (P02751 whole entry D1544N): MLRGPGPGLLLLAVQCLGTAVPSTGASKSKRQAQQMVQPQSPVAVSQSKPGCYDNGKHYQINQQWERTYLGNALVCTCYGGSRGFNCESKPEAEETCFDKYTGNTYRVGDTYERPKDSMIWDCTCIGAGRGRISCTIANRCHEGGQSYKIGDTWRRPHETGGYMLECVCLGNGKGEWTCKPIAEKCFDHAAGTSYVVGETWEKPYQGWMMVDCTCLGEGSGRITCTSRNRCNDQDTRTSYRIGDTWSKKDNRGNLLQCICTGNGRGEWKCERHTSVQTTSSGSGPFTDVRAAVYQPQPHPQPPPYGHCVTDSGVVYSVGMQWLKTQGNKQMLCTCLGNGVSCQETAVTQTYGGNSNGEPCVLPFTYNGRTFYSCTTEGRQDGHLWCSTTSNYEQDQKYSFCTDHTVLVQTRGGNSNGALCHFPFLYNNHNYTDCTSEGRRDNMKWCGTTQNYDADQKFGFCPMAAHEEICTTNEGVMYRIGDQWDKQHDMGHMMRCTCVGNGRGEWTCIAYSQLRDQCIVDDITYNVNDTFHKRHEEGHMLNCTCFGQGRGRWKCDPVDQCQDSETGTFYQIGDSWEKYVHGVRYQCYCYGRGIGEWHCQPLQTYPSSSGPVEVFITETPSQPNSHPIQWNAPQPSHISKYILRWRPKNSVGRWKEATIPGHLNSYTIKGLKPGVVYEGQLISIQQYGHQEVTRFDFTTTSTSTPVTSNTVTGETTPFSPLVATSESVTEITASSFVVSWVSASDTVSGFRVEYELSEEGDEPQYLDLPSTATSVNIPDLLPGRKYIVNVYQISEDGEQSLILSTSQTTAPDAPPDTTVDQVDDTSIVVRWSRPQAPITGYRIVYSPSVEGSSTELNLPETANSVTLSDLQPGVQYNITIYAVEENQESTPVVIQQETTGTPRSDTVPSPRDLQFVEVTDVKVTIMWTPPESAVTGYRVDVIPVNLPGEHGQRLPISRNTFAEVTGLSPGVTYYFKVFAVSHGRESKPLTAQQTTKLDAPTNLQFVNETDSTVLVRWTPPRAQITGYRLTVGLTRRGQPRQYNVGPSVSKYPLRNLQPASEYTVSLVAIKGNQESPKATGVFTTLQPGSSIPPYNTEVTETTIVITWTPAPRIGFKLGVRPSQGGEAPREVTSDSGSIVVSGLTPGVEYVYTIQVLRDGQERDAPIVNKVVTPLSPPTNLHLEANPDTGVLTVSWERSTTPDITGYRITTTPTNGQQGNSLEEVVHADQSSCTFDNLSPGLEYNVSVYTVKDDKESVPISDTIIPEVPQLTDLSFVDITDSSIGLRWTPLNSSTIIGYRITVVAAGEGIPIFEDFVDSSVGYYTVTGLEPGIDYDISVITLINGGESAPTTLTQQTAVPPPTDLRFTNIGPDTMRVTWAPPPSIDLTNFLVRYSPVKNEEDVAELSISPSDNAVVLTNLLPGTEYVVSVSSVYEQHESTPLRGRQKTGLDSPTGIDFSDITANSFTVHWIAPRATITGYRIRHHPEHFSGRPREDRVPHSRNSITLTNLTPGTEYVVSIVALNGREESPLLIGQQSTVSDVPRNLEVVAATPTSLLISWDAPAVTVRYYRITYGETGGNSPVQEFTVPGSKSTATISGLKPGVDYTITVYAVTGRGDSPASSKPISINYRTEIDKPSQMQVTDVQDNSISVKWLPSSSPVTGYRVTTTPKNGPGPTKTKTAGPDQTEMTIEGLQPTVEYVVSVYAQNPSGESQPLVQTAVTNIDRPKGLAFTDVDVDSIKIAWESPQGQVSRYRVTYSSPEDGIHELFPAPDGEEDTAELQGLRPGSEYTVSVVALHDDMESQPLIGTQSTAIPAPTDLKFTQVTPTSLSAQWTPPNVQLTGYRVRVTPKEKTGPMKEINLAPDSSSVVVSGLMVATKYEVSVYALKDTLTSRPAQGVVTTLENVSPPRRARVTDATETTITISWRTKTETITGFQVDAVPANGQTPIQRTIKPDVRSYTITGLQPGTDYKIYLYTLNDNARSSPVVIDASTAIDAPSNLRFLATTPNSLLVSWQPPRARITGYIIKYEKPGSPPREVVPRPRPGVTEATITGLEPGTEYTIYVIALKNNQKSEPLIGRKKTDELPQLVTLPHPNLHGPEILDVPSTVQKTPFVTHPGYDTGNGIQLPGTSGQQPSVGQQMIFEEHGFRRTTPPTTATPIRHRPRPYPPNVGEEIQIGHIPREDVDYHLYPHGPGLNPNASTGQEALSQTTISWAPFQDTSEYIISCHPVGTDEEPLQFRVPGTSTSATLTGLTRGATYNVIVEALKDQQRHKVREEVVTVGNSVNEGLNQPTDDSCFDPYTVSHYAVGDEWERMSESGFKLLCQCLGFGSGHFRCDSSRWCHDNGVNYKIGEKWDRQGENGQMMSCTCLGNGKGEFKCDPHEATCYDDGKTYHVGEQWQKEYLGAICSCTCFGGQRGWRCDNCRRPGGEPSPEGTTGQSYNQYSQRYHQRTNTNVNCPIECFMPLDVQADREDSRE
Chain of Homeotic protein antennapedia R306E|L310R|H317R|F318R, P02833 R306E L310R H317R F318R (P02833 whole entry R306E/L310R/H317R/F318R): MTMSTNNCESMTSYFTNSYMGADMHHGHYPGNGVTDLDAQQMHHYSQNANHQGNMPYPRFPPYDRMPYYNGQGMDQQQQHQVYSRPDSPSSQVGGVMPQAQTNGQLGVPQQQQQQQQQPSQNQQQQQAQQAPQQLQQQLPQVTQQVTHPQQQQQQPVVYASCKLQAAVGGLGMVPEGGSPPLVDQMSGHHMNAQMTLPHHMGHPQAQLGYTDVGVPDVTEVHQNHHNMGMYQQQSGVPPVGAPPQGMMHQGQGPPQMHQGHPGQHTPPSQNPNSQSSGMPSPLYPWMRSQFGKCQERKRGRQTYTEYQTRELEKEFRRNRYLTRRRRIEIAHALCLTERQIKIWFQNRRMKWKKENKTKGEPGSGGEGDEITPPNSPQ
Chain of Cytochrome c wild type, P00004 (P00004 whole entry): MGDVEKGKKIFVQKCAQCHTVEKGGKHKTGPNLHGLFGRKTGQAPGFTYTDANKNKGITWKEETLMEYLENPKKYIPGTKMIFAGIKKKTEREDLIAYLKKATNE
Chain of S-adenosylmethionine synthase isoform type-1 R265H, P13444 (P13444 whole entry R265H, canonical isoform): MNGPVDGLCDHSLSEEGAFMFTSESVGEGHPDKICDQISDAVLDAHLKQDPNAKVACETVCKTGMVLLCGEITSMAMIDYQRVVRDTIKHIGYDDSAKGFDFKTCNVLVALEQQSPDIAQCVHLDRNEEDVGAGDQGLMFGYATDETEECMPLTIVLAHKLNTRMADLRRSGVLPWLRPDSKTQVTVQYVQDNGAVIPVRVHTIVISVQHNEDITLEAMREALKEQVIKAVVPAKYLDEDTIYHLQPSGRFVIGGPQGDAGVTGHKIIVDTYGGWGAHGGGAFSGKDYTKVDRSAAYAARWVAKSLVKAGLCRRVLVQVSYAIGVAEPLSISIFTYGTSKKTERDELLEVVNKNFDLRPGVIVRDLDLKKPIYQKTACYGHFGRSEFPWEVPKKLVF
Chain of Carbonic anhydrase 2 wild type, P00921 (P00921 whole entry): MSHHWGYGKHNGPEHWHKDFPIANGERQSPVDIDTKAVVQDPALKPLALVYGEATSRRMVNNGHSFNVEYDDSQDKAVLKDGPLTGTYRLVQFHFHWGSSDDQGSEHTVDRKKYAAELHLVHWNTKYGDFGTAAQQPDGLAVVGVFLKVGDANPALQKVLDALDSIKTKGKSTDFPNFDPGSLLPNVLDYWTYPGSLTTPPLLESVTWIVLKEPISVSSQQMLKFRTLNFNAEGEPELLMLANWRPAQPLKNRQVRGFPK
Chain of Endo-1,4-beta-xylanase wild type, Q59962 (Q59962 entry or part of it): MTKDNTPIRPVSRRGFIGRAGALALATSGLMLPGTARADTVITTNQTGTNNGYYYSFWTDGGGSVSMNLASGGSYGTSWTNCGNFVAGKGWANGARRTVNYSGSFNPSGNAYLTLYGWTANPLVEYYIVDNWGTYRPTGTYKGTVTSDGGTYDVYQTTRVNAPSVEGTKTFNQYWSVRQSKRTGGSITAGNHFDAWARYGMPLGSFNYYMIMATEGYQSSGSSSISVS
Chain of Creatine kinase M-type wild type, P00563 (P00563 whole entry): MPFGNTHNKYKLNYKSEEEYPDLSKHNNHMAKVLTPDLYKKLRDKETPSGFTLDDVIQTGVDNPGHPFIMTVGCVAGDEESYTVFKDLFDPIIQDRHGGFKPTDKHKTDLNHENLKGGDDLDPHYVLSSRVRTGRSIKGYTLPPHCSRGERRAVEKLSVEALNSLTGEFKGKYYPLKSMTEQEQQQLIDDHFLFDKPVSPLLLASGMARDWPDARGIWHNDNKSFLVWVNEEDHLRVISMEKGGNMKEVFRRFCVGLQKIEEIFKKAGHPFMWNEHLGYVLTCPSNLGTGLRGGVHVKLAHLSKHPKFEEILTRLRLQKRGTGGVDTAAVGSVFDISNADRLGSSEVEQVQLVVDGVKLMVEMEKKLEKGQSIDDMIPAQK

As to Carbonic anhydrase 2 wild type, P00921, the midpoint of thermal melting (Tm) (in general, the temperature at which the thermal transition is half complete) is, setting by setting: under setting [1], 39 °C; under setting [2], 48 °C; under setting [3], 56 °C; under setting [4], 62.5 °C; under setting [5], 64 °C. For the same substance, the “heat capacity change of unfolding” value by setting is: under setting [1], 4 kcal/mol/K; under setting [2], 4 kcal/mol/K; under setting [3], 4 kcal/mol/K; under setting [4], 3.9 kcal/mol/K; under setting [5], 3.8 kcal/mol/K. In addition, under setting [5], the “unfolding enthalpy (calorimetric)” value was found to be 190 kcal/mol.

Consider “Cell division control protein 42 homolog T35A, P60953”, for which, under setting [6], the Tm is 64.2 °C and the “change of melting temperature, mutant - wild type (higher = more stable)” value (“change of melting temperature, mutant” below) was determined as 0.7 °C.

For the substance “Cell division control protein 42 homolog wild type, P60953”, the melting temperature (Tm) (Homo sapiens, Thermal, DSC, 1 X - PBS, Mg2+ 0.5 mM) stood at 63.5 °C.

With “Cold shock-like protein wild type, O54310”, under setting [7], the denaturant m value was determined as 1.34 kcal/mol/M and the unfolding free energy stood at 3.35 kcal/mol.

For “Creatine kinase B-type wild type, P00567”, where the note is “Oryctolagus cuniculus, pH 7.4, 22 °C, GdnHCl, CD, Sodium phosphate 100 mM”, the unfolding free energy amounted to 6.94 kcal/mol. Under “Oryctolagus cuniculus, pH 8, Thermal, DSC, HEPES-NaOH 30 mM, reversible: no”, the midpoint of thermal melting (Tm) amounted to 55.9 °C.

As to “Creatine kinase M-type wild type, P00563”, the Tm (Oryctolagus cuniculus, pH 8, Thermal, DSC, Hepes-NaOH 30 mM, NaCl 0.1 M, reversible: No) was 53.7 °C and 53.8 °C.

Cytochrome c wild type, P00004: the unfolding free energy (Equus caballus, pH 1.7, 20 °C, HCl, CD, HCl 9 mM) is 3.3 kcal/mol; the unfolding free energy (Equus caballus, pH 4.9, 10 °C, GdnHCl, Fluorescence, sodium acetate 0.2 M) was 8.2 kcal/mol; the unfolding free energy under setting [8] came to 2.04 kcal/mol; the unfolding free energy (Equus caballus, pH 6.5, 25 °C, GdnHCl, CD, HCl 0.1 M, reversible: yes) worked out at 12.7 kcal/mol; the unfolding free energy under setting [9] was 20.4 kcal/mol and 12.1 kcal/mol; the unfolding free energy under setting [10] was 10.4 kcal/mol. For the same substance, the unfolding free energy is 8.5 kcal/mol (Equus caballus, pH 7, 21 °C, GdnHCl, Absorbance, phosphate 10 mM); 8.4 kcal/mol (Equus caballus, pH 7, 21 °C, GdnHCl, CD, phosphate 10 mM); 7.4 kcal/mol (Equus caballus, pH 7, 21 °C, GdnHCl, Fluorescence, phosphate 10 mM); 18 kcal/mol under setting [11]; 10.7 kcal/mol and 7.2 kcal/mol under setting [12]; 8.7 kcal/mol (Equus caballus, pH 7, 25 °C, GdnHCl, Absorbance, cacodylate 0.03 M, KCl 0.1 M, reversible: yes). Further, the unfolding free energy reads like this: under setting [13], 6 kcal/mol; (Equus caballus, pH 7, 25 °C, SDS, CD, Phosphate 50 mM) 3.59 kcal/mol; under setting [14], 3 kcal/mol. Moreover, the denaturant m value was 1.61 kcal/mol/M under setting [8]; 3.8 kcal/mol/M and 3.2 kcal/mol/M under setting [9]; 3.9 kcal/mol/M under setting [10]; 4.1 kcal/mol/M and 2.5 kcal/mol/M under setting [12]; 2 kcal/mol/M under setting [13]. Besides, the “denaturant midpoint (higher = more stable)” value (shortened to “denaturant midpoint”) reads like this: under setting [8], 1.27 M; under setting [10], 2.67 M; under setting [11], 5 M; under setting [13], 2.54 M; under setting [14], 2.6 M.

Take Cytochrome c wild type, P62894: the unfolding free energy (Bos taurus, pH 6.5, 25 °C, GdnHCl, CD, HCl 0.1 M, reversible: yes) stood at 15.4 kcal/mol.

Consider Dystrophin, P11532 C10S C188S, for which the melting temperature (Tm) by setting is: (Homo sapiens, pH 7, Thermal, CD, NaH2PO4, NaCl, reversible: no, structure 1DXX) 61 °C; (Homo sapiens, pH 7, Thermal, Fluorescence, NaH2PO4, NaCl, reversible: no, structure 1DXX) 62.4 °C. Moreover, the unfolding free energy (Homo sapiens, pH 7, Urea, CD, NaH2PO4, NaCl, reversible: yes, structure 1DXX) is 9.81 kcal/mol and the unfolding free energy (Homo sapiens, pH 7, Urea, Fluorescence, NaH2PO4, NaCl, reversible: yes, structure 1DXX) was 12.8 kcal/mol.

Consider Dystrophin, P11532 L172H, for which, under setting [15], the melting temperature (Tm) turned out to be 42.1 °C and the “change of melting temperature, mutant” value is -1.28 °C.

Turning to Dystrophin, P11532 L427P, under setting [16], the melting temperature (Tm) was found to be 50 °C and the “change of melting temperature, mutant” value is -3.4 °C.

Dystrophin, P11532 Y231N: under setting [17], the melting temperature (Tm) worked out at 43 °C and the “change of melting temperature, mutant” value is -15 °C.

Turning to “Endo-1,4-beta-xylanase wild type, Q59962”, the “unfolding enthalpy (calorimetric)” value (Streptomyces sp. S38, pH 7.5, Thermal, DSC, MOPS 20 mM, NaCl 100 mM, reversible: No) was 108 kcal/mol and 125 kcal/mol and 127 kcal/mol.

Regarding Fibronectin D1544K, P02751, the Tm was 69 °C (Homo sapiens, pH 2.4, Thermal, CD, glycine hydrochloride 20 mM, NaCl 0.1 M, reversible: yes, structure 1TTG); 77 °C under setting [18]; 70 °C under setting [19]; 78 °C under setting [20].

In the case of Fibronectin D1544N, P02751, the Tm runs as follows: under setting [18], 82 °C; under setting [19], 69 °C; under setting [20], 80 °C.

Fibronectin P1619A, P02751: the “ddG of mutation (higher = less stable)” value under setting [21] came to 0.42 kcal/mol.

In the case of Fibronectin P1624A, P02751, the “ddG of mutation (higher = less stable)” value under setting [21] was found to be 0.21 kcal/mol.

For the substance Fibronectin Y1605F, P02751, the “ddG of mutation (higher = less stable)” value (Homo sapiens, pH 5, 25 °C, Urea, Fluorescence, Sodium acetate 50 mM, reversible: yes, structure 1TTG) was -2.03 kcal/mol.

As for “Homeotic protein antennapedia R306E|L310R|H317R|F318R, P02833 R306E L310R H317R F318R”, under setting [22], the denaturant m value is 1.6 kcal/mol/M and 0.79 kcal/mol/M; the “denaturant midpoint” value is 2.14 M and 1.32 M.

For the substance MKLWFSTLKLKKAA [wild type], the melting temperature (Tm) (Bacillus licheniformis, pH 5, Thermal, Fluorescence, Sodium acetate 50 mM, reversible: no) turned out to be 65 °C; the Tm (Bacillus licheniformis, pH 6, Thermal, Fluorescence, Sodium phosphate 50 mM) was 64.7 °C; the melting temperature (Tm) (Bacillus licheniformis, pH 9, Thermal, Fluorescence, Sodium pyrophosphate 50 mM, reversible: yes) was 56.5 °C. In addition, the “unfolding enthalpy (van 't Hoff)” value (Bacillus licheniformis, pH 7, Thermal, Fluorescence, Sodium phosphate 50 mM, reversible: yes) is 99.9 kcal/mol and 112 kcal/mol and 164 kcal/mol.

For “Peptidyl-prolyl cis-trans isomerase D K227A, P26882”, under setting [23], the Tm was 45.2 °C; the “change of melting temperature, mutant” value was determined as 0.12 °C; the “unfolding enthalpy (calorimetric)” value worked out at 159 kcal/mol.

In the case of “Peptidyl-prolyl cis-trans isomerase D K308A, P26882”, under setting [23], the midpoint of thermal melting (Tm) came out at 45 °C; the “change of melting temperature, mutant” value is -0.07 °C; the “unfolding enthalpy (calorimetric)” value came to 155 kcal/mol.

For “Peptidyl-prolyl cis-trans isomerase D wild type, P26882”, under setting [24], the Tm was determined as 45.1 °C and the “unfolding enthalpy (calorimetric)” value is 165 kcal/mol.

Take Phospholipase A2 H70A, P00593: under setting [25], the “ddG of mutation (higher = less stable)” value came to 3.1 kcal/mol, the denaturant m value was 1.02 kcal/mol/M, the “denaturant midpoint” value amounted to 6.3 M and the unfolding free energy was determined as 6.4 kcal/mol.

Turning to Phospholipase A2 H70Q, P00593, under setting [25], the “ddG of mutation (higher = less stable)” value was 0.6 kcal/mol, the denaturant m value stood at 1.34 kcal/mol/M, the “denaturant midpoint” value was 6.6 M and the unfolding free energy is 8.9 kcal/mol.

As for “Phospholipase A2, major isoenzyme N111D, P00592”, the unfolding free energy (Sus scrofa, pH 7, 20 °C, GdnHCl, Absorbance, Tris 5 mM, reversible: yes, structure 1P2P) is 0.19 kcal/mol.

Consider “Phospholipase A2, major isoenzyme wild type, P00592”, for which, where the note is “Sus scrofa, pH 7, 20 °C, GdnHCl, Absorbance, Tris 5 mM, reversible: yes”, the unfolding free energy was 0 kcal/mol.

Take “S-adenosylmethionine synthase isoform type-1 R265H, P13444”: under setting [26], the denaturant m value amounted to 1.15 kcal/mol/M, the “denaturant midpoint” value is 3.82 M and the unfolding free energy worked out at 4.41 kcal/mol.

As to “S-adenosylmethionine synthase isoform type-1 wild type, P13444”, under “Rattus norvegicus, pH 8, 25 °C, Urea, Fluorescence, Tris-HCl 50 mM, MgCl2 4 mM, transition: 3, reversible: yes”, the unfolding free energy is 6.12 kcal/mol and 4.41 kcal/mol.

For the substance Soluble cytochrome b562 A62G, P0ABE7, the “ddG of mutation (higher = less stable)” value (Escherichia coli, pH 5, 25 °C, Urea, Fluorescence, NaAc 50 mM, structure 6BQG) turned out to be 0.57 kcal/mol.

These data come from FireProtDB.
